The values that follow are results of earlier work, collected in PMC8999013.

This series deals with integrin α7B cytoplasmic domain (Homo sapiens) (UniProt Q13683). The series can be described thus: intrinsic tryptophan fluorescence.
Sequence of integrin α7B cytoplasmic domain (Homo sapiens) (Q13683 1104-1181): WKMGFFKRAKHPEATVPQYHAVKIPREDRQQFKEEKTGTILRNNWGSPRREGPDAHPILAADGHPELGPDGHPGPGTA

Sequence of CIB2 (O75838 whole entry): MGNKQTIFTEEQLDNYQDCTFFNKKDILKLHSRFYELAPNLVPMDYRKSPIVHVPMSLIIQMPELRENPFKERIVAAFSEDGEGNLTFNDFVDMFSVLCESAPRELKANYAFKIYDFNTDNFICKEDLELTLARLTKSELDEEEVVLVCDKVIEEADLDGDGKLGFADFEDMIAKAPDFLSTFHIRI

Turning to CIB2 (from UniProt O75838), the Kd is 304 nM.

The term Kd denotes the constant that tells how readily two partners part at equilibrium.
